Measurements published in publication PMC10592472 (Cell reports, 2023).
Where two headings read alike, the source gives them in different places.

Key:
[1] = target: LFA1 (αLβ2) (mouse (endogenous in primary T cells)) (UniProt P24063); test: single-molecule imaging
[2] = target: LFA1 (αLβ2) (mouse (endogenous in primary T cells)) (UniProt P24063); test: single-molecule imaging; remark: listed apart in the source
LFA1 (αLβ2) = LFA1 (αLβ2) (mouse (endogenous in primary T cells), UniProt P24063 24-1162; P11835 24-771); test: flow cytometry on cells
Sequence of LFA1 (αLβ2) (P24063 24-1162, chain 1 of 2): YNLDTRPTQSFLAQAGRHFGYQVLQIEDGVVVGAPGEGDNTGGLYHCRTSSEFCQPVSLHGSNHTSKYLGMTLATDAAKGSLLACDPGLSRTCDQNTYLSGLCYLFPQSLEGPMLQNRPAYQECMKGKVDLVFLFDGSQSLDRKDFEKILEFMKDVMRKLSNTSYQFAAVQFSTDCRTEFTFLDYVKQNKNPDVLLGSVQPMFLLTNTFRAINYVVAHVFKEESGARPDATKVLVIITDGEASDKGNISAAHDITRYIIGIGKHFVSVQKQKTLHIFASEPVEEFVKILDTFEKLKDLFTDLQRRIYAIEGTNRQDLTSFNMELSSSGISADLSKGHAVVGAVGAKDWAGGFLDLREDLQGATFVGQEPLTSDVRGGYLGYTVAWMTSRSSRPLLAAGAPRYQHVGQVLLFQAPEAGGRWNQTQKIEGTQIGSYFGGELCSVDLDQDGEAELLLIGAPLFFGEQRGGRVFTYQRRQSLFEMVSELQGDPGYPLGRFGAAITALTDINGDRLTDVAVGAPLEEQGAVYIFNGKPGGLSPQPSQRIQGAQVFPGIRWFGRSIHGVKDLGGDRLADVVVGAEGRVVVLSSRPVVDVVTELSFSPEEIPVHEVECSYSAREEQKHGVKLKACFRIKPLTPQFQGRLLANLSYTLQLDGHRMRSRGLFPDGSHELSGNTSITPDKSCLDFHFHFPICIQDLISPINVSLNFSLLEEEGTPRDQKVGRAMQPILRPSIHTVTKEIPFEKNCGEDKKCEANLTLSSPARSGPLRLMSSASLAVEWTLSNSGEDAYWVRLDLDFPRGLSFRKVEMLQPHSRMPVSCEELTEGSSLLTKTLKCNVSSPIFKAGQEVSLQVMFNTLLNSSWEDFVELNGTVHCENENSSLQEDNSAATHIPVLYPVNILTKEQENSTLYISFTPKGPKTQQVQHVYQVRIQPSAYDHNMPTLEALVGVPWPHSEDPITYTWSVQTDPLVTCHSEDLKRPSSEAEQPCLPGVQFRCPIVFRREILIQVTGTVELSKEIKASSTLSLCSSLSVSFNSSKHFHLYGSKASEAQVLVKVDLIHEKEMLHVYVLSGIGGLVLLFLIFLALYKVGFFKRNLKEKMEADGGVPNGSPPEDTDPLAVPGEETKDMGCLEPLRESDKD
Sequence of LFA1 (αLβ2) (P11835 24-771, chain 2 of 2): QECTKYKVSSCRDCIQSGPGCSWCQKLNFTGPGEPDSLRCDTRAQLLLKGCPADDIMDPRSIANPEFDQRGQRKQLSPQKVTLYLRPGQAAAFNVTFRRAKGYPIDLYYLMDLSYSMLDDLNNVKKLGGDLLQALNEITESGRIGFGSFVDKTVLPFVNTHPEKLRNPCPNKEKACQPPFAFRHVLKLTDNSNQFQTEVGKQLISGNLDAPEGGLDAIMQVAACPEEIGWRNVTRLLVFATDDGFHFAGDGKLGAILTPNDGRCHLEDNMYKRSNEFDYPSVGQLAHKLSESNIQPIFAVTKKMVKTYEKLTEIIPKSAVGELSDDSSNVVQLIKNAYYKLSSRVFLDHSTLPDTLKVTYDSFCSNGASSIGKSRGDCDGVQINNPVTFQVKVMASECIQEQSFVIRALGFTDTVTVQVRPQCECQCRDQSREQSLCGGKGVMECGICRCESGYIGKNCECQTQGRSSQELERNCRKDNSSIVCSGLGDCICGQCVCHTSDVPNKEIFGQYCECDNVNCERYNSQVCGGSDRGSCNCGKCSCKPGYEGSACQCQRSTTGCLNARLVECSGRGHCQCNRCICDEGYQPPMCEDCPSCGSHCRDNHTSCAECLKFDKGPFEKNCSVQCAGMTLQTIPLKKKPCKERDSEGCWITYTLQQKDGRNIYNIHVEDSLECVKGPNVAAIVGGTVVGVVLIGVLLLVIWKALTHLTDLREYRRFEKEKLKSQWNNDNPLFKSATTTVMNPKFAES

Sequence of LFA1 (αLβ2) (mouse (endogenous in primary T cells)) (P24063 24-1162, chain 1 of 2): as the sequence (P24063 24-1162, chain 1 of 2) above
Sequence of LFA1 (αLβ2) (mouse (endogenous in primary T cells)) (P11835 24-771, chain 2 of 2, further chain): as the sequence (P11835 24-771, chain 2 of 2) above

koff [1] | koff [2] | fold binding against WT T cells (Rasa3/Sipa1-KO T cells, Mn2+) (LFA1 (αLβ2)) | Molecule
0.398 s⁻¹ | 0.03 s⁻¹ | – | mouse ICAM1-GPI (from UniProt P13597 28-537) (ligand)
– | – | 2 fold | Mouse ICAM1-Fc (Fc fusion, UniProt P13597 28-485, looked up) QVSIHPREAFLPQGGSVQVNCSSSCKEDLSLGLETQWLKDELESGPNWKLFELSEIGEDSSPLCFENCGTVQSSASATITVYSFPESVELRPLPAWQQVGKDLTLRCHVDGGAPRTQLSAVLLRGEEILSRQPVGGHPKDPKEITFTVLASRGDHGANFSCRTELDLRPQGLALFSNVSEARSLRTFDLPATIPKLDTPDLLEVGTQQKLFCSLEGLFPASEARIYLELGGQMPTQESTNSSDSVSATALVEVTEEFDRTLPLRCVLELADQILETQRTLTVYNFSAPVLTLSQLEVSEGSQVTVKCEAHSGSKVVLLSGVEPRPPTPQVQFTLNASSEDHKRSFFCSAALEVAGKFLFKNQTLELHVLYGPRLDETDCLGNWTWQEGSQQTLKCQAWGNPSPKMTCRRKADGALLPIGVVKSVKQEMNGTYVCHAFSSHGNVTRNVYLTVLYHSQNN
